According to patent US20070134248A1:

Molecular target: KV4-1 Id proteins
Test: ELISA

B1: mAb clone 12C3 (antibody, V domains shown)
VH: EVKLVESGGGLVQPGGSLSLSCAASGFTYTDYYMNWVRQPPGKALEWLALIRNKANGYTTEYSASLKGRFTISRDNSQSILYLQMNALRAEDSATYYCVRENINYYFDYWGQGTTLTVSS
VL: DIVLTQSPASLAVSLGQRATISCRASESVEYFGASLMQWYQQKSGQPPKLLIRAATNVESGVPARFSGSGSGTDFSLNIHPVEEDDIAMYFCQQSRKVPWTFGGGTKLEIKR
KV4-1 Id proteins recognized / tested (of 41 Id proteins): 35
